Publication doi:10.1101/2021.05.10.443404

Columns and labels:
[1] = target: (RBD(319-541)-CHO)2 (SARS-CoV-2) (UniProt P0DTC2); test: SDS-PAGE
[2] = target: RBD(319-541)-HEK_A3 (SARS-CoV-2) (UniProt P0DTC2); test: SDS-PAGE

Substance: (RBD(319-541)-CHO)2 (from UniProt P0DTC2 319-541) (domain or fragment)
- stoichiometry N [1]: 2

Substance: RBD(319-541)-HEK_A3 (from UniProt P0DTC2 319-541) (domain or fragment)
- percent of the preparation as dimer [2]: 13%
- stoichiometry N [2]: 2
